# B1: murine LPHN3^Lec-Olf, wild type, biotinylated at a C-terminal Avi-Tag [modified: biotin on the C-terminal Avi-Tag (enzymatic); biotin on the C-terminal Avi-Tag (enzymatic)] [murine] / murine FLRT2 full ectodomain, wild … (parent)
# chain 1: PIPMAVVRRELSCESYPIELRCPGTDVIMIESANYGRTDDKICDSDPAQMENIRCYLPDAYKIMSQRCNNRTQCAVVAGPDVFPDPCPGTYKYLEVQYECVPYKVEQKVFLCPGLLKGVYQSEHLFESDHQSGAWCKDPLQASDKIYYMPWTPYRTDTLTEYSSKDDFIAGRPTTTYKLPHRVDGTGFVVYDGALFFNKERTRNIVKFDLRTRIKSGEAIIANANYHDTSPYRWGGKSDIDLAVDENGLWVIYATEQNNGKIVISQLNPYTLRIEGTWDTAYDKRSASNAFMICGILYVVKSVYEDDDNEATGNKIDYIYNTDQSKDSLVDVPFPNSYQYIAAVDYNPRDNLLYVWNNYHVVKYSLDFGPLD
# chain 2: ACPSVCRCDRNFVYCNERSLTSVPLGIPEGVTVLYLHNNQINNAGFPAELHNVQSVHTVYLYGNQLDEFPMNLPKNVRVLHLQENNIQTISRAALAQLLKLEELHLDDNSISTVGVEDGAFREAISLKLLFLSKNHLSSVPVGLPVDLQELRVDENRIAVISDMAFQNLTSLERLIVDGNLLTNKGIAEGTFSHLTKLKEFSIVRNSLSHPPPDLPGTHLIRLYLQDNQINHIPLTAFANLRKLERLDISNNQLRMLTQGVFDHLSNLKQLTARNNPWFCDCSIKWVTEWLKYIPSSLNVRGFMCQGPEQVRGMAVRELNMNLLSCPTTTPGLPVFTPAPSTVSPTTQSPTLSVPSPSRGSVPPAPTPSKLPTIPDWDGRERVTPPISERIQLSIHFVNDTSIQVSWLSLFTVMAYKLTWVKMGHSLVGGIVQERIVSGEKQHLSLVNLEPRSTYRICLVPLDAFNYRTVEDTICSEATTHASYLNNGSNTASSHEQTTSHSMGSP
# Variants of: B1
# Experiment: SPR
# Conditions: with murine FLRT2 full ectodomain; for Kd: biotinylated LPHN3 Lec-Olf immobilized on streptavidin-coated Biacore chips, FLRT2 ectodomain injected as analyte, 1:1 binding model, parent: 18 nM; for response: maximum response at the highest FLRT2 ectodomain concentration plotted (about 2.3 µM), parent: 450, read off a plot
Kd [nM],response [RU],Variant
460,400,chain 1 T176N K178T
980,460,chain 1 P153N R155T

# From PMC4396693, “Structural Basis of Latrophilin-FLRT Interaction” (Structure(London, England:1993), 2015)
